Data published in article PMC3768570 (Brazilian Journal of Microbiology, 2009).

Tests used:
[1] = test system: Saccharomyces cerevisiae phytase; assay: phosphate release, ammonium molybdate, Lineweaver-Burk; assay type: biochemical; details: pH 5.0, 37°C, 100 mM sodium acetate; InsP3 prepared with S. cerevisiae phytase
[2] = biological target: T1, phytase from Aspergillus niger 11T53A9 (Aspergillus niger, UniProt P34752); assay: biochemical
T1 sequence (P34752 24-467): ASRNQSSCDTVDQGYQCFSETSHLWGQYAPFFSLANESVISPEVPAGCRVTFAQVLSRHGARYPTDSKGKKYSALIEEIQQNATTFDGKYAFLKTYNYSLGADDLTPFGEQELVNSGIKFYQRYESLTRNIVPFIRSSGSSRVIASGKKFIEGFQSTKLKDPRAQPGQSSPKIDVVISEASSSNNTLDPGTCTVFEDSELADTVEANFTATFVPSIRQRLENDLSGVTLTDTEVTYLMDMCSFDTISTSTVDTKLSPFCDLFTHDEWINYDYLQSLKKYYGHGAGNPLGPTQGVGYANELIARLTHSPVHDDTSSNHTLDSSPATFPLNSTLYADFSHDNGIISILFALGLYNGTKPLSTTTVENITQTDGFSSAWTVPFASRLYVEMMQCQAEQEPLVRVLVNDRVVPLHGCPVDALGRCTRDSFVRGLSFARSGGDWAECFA

purified protein [3] = substrate: O=P(O)(O)O[C@H]1[C@H](OP(=O)(O)O)[C@@H](OP(=O)(O)O)[C@H](OP(=O)(O)O)[C@@H](OP(=O)(O)O)[C@H]1OP(=O)(O)O; assay: purified protein; details: pH 5.0, 37°C, 100 mM sodium acetate
purified protein [4] = substrate: O=[N+]([O-])c1ccc(OP(=O)(O)O)cc1; assay: purified protein; details: pH 5.0, 37°C, 100 mM sodium acetate
purified protein [5] = substrate: O=P(O)(O)Oc1ccccc1; assay: purified protein; details: pH 5.0, 37°C, 100 mM sodium acetate
purified protein [6] = substrate: Nc1ncnc2c1ncn2[C@@H]1O[C@H](COP(=O)(O)OP(=O)(O)O)[C@@H](O)[C@H]1O; assay: purified protein; details: pH 5.0, 37°C, 100 mM sodium acetate
purified protein [7] = substrate: O=P(O)(O)OC(CO)CO; assay: purified protein; details: pH 5.0, 37°C, 100 mM sodium acetate
purified protein [8] = substrate: Nc1ncnc2c1ncn2[C@@H]1O[C@H](COP(=O)(O)OP(=O)(O)OP(=O)(O)O)[C@@H](O)[C@H]1O; assay: purified protein; details: pH 5.0, 37°C, 100 mM sodium acetate
purified protein [9] = substrate: Nc1ncnc2c1ncn2[C@@H]1O[C@H](COP(=O)(O)O)[C@@H](O)[C@H]1O; assay: purified protein; details: pH 5.0, 37°C, 100 mM sodium acetate
purified protein [10] = substrate: O=P(O)(O)Oc1cccc2ccccc12; assay: purified protein; details: pH 5.0, 37°C, 100 mM sodium acetate
purified protein [11] = substrate: O=P(O)(O)O[C@H]1O[C@H](CO)[C@@H](O)[C@H](O)[C@H]1O; assay: purified protein; details: pH 5.0, 37°C, 100 mM sodium acetate
purified protein [12] = substrate: O=P(O)(O)Oc1ccc2ccccc2c1; assay: purified protein; details: pH 5.0, 37°C, 100 mM sodium acetate

O=P(O)(O)O[C@@H]1[C@H](OP(=O)(O)O)[C@H](O)[C@@H](O)[C@H](O)[C@H]1OP(=O)(O)O [D-Ins(1,2,6)P3]
Km [1]: 293 ± 12 µM

F [Fluoride]
Ki [2]: 158 µM

B1: phytase from Aspergillus niger 11T53A9 (Aspergillus niger) (protein)
chain: T1 sequence (P34752 24-467)
Km (purified protein [3]): 54 ± 1.4 µM | kcat (purified protein [3]): 190 ± 4.3 s⁻¹ | kcat/Km (purified protein [3]): 3.52e+06 M⁻¹ s⁻¹ | Km (purified protein [4]): 124 ± 3.9 µM | kcat (purified protein [4]): 35 ± 0.9 s⁻¹ | kcat/Km (purified protein [4]): 282000 M⁻¹ s⁻¹ | Km (purified protein [5]): 177 ± 1.3 µM | kcat (purified protein [5]): 36 s⁻¹ | kcat/Km (purified protein [5]): 203000 M⁻¹ s⁻¹ | Km (purified protein [6]): 534 ± 7.9 µM | kcat (purified protein [6]): 12 ± 0.9 s⁻¹ | kcat/Km (purified protein [6]): 22500 M⁻¹ s⁻¹ | Km (purified protein [7]): 521 ± 9.1 µM | kcat (purified protein [7]): 9 ± 0.3 s⁻¹ | kcat/Km (purified protein [7]): 17300 M⁻¹ s⁻¹ | Km (purified protein [8]): 587 ± 6.5 µM | kcat (purified protein [8]): 8 s⁻¹ | kcat/Km (purified protein [8]): 13600 M⁻¹ s⁻¹ | Km (purified protein [9]): 497 ± 8.2 µM | kcat (purified protein [9]): 11 ± 1.1 s⁻¹ | kcat/Km (purified protein [9]): 22100 M⁻¹ s⁻¹ | Km (purified protein [10]): 247 ± 6.7 µM | kcat (purified protein [10]): 23 ± 1.5 s⁻¹ | kcat/Km (purified protein [10]): 93100 M⁻¹ s⁻¹ | Km (purified protein [11]): 741 ± 6.4 µM | kcat (purified protein [11]): 6 ± 0.4 s⁻¹ | kcat/Km (purified protein [11]): 8100 M⁻¹ s⁻¹ | Km (purified protein [12]): 276 ± 7.1 µM | kcat (purified protein [12]): 22 s⁻¹ | kcat/Km (purified protein [12]): 79700 M⁻¹ s⁻¹
